Test results: US20090075340A1

Molecular target: HLA-Cw4 on LCL 721.221-Cw4 cells (human)
Assay: cell-based or functional assay

**Q.** “KIR2DL1 expressed on YTS-2DL1 NK cells (from UniProt P43626 22-348)” was tested. Which killing of LCL 721.221-Cw4 cells by YTS-2DL1 in the absence of any anti-KIR mAb did it give?
**A.** The killing of LCL 721.221-Cw4 cells by YTS-2DL1 in the absence of any anti-KIR mAb was 5%.
